This assay has as its target Drosophila CMP-sialic acid synthetase (CSAS), wild-type, 3xFLAG-tagged (Drosophila). The assay can be described thus: SEC; clarified lysate of flies expressing CSAS-FLAG on a calibrated Superdex 75 10/30 HR column; 150 mM NaCl in 20 mM potassium phosphate pH 6.8; fractions analysed by FLAG Western blot. Background: Size exclusion chromatography separates by hydrodynamic size, large species first.

What is called stoichiometry N is a count of units in the complex or per binding partner. With “Drosophila CMP-sialic acid synthetase (CSAS), wild-type, 3xFLAG-tagged (enzyme)”, the stoichiometry N is 2.

Source of the values: PMC12144448.
